Data on 1 substance can be found in PMC5740878.

This experiment has as its target UHRF1-mCherry (UniProt Q96T88). The experiment can be described thus: FRET or BRET; FLIM-FRET in fixed HeLa cells 24 h after co-transfection of TIP60-eGFP WT/mutants (donor) and UHRF1-mCherry (acceptor) 1:1; two-photon excitation at 930 nm; E = 1-(τDA/τD); one-component and two-component analysis of decays. (In general: In BRET a luciferase serves as donor, and the signal depends on an acceptor being close.)

TIP60∆CRD-eGFP, sequence (Q92993 whole entry): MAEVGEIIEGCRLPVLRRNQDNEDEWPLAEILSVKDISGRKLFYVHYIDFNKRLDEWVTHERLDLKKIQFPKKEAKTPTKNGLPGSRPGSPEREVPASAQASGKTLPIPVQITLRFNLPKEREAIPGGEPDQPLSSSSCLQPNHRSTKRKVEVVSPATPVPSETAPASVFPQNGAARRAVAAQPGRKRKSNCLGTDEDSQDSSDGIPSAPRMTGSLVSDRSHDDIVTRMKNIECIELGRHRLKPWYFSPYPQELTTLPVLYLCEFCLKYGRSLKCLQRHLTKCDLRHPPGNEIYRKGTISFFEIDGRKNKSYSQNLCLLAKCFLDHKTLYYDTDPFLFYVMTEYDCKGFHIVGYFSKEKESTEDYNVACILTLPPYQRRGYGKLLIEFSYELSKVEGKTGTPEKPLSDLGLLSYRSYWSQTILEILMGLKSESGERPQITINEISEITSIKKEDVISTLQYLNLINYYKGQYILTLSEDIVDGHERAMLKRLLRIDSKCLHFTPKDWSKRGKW
UHRF1-mCherry, sequence (Q96T88 whole entry): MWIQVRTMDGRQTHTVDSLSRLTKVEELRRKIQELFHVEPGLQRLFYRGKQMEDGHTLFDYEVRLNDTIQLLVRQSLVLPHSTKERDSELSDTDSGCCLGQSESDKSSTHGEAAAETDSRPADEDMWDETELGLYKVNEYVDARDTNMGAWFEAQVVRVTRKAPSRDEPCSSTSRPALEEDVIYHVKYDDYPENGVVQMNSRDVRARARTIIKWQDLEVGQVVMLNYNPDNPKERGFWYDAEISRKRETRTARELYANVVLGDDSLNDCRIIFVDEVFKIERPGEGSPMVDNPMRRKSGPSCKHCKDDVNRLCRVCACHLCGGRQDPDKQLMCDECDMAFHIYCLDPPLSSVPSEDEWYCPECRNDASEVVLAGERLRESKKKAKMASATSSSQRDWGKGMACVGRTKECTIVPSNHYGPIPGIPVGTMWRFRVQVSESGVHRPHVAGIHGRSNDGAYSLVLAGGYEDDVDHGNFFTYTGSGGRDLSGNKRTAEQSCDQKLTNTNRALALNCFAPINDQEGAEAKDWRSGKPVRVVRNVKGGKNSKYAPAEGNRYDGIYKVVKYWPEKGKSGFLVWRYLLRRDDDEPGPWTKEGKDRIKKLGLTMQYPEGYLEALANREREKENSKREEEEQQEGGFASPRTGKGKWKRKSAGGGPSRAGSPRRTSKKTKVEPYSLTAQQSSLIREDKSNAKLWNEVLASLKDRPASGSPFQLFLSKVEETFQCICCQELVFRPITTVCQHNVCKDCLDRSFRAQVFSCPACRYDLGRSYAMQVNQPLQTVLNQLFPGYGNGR

On to “TIP60∆CRD-eGFP (from UniProt Q92993 1-513) (natural protein)”, for which the average FRET came out at 12.2%; the average FRET of the short lifetime component, two-component model worked out at 43%; the mean short lifetime component (τ1), two-component model worked out at 1.4 ns; the population (α1) of the interacting short lifetime component came out at 19%.
